Source: PMC2862297 (Journal of molecular biology, 2010)

Target: the molecule itself
Experiment: cryo-EM structure

B1: LTag108-627 deletion mutant of SV40 large T antigen (domain or fragment)
chain: EMPSSDDEATADSQHSTPPKKKRKVEDPKDFPSELLSFLSHAVFSNRTLACFAIYTTKEKAALLYKKIMEKYSVTFISRHNSYNHNILFFLTPHRHRVSAINNYAQKLCTFSFLICKGVNKEYLMYSALTRDPFSVIEESLPGGLKEHDFNPEEAEETKQVSWKLVTEYAMETKCDDVLLLLGMYLEFQYSFEMCLKCIKKEQPSHYKYHEKHYANAAIFADSKNQKTICQQAVDTVLAKKRVDSLQLTREQMLTNRFNDLLDRMDIMFGSTGSADIEEWMAGVAWLHCLLPKMDSVVYDFLKCMVYNIPKKRYWLFKGPIDSGKTTLAAALLELCGGKALNVNLPLDRLNFELGVAIDQFLVVFEDVKGTGGESRDLPSGQGINNLDNLRDYLDGSVKVNLEKKHLNKRTQIFPPGIVTMNEYSVPKTLQARFVKQIDFRPKDYLKHCLERSEFLLEKRIIQSGIALLLMLIWYRPVAEFAQSIQSRIVEWKERLDKEFSLSVYQKMKFNVAMGIGVLD
- stoichiometry N: 12
